{"source": "paper PMC8304084", "about": "“A Concerted Action of UBA5 C-Terminal Unstructured Regions Is Important for Transfer of Activated UFM1 to UFC1” (International Journal of Molecular Sciences, 2021)", "format_in_all_cases": "binding", "key": {"LC3A": {"molecular_target": "T1, LC3A (Homo sapiens, UniProt Q9H492)", "T1 construct": "LC3A, residues 4–120; ubiquitin tag Ub3 (vector pETm60_Ub3) (cleaved yes); made in house; host or cells: E. coli T7 Express", "T1 sequence (Q9H492 4-120)": "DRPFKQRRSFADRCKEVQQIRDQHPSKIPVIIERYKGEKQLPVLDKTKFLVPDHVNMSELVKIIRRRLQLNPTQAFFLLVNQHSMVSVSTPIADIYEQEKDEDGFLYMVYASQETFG", "test": "ITC, UBA5 peptides vs LC3A", "conditions": "25 °C", "source_text": "(§1) To understand how the UBA5 C-terminus participates in the ufmylation cascade, we performed isothermal titration calorimetry (ITC) experiments, in which we titrated UBA5 C-terminal peptides (see Table 1) to the UBA5 AD, UFC1, UFM1 and representative LC3/GABARAP proteins (Figure 2A, Supplementary Figure S2A–D and Table 2).\n(§2) All proteins and peptides were expressed in E.Coli T7 Express (New England Biolabs GmbH, Frankfurt, Germany) cells in LB or M9 (to obtain ^15N- and ^13C,^15N-labeled polypeptides) media according to the protocol described in [33, 36]. For protein purification, bacterial cell pellets were resuspended in lysis buffer (50 mM Tris-HCl pH = 7.5, 100 mM NaCl, 5% glycerol, 5 mM PIC (protease inhibitor cocktail)) and lysed via sonication (TT13 Sonotrode, 40% amplitude, for 6 × 1 min with a 0.5/0.5-s pulse). Lysates were centrifuged for 45 min at 17,000× g at 4 °C. Supernatants were loaded onto a His Trap Fast Flow 5 mL column (GE Healthcare, München, Germany) equilibrated in loading buffer (50 mM Tris-HCl pH = 8.0, 250 mM NaCl, 1% glycerol, 20 mM imidazole). The column was washed with loading buffer for 5–10 CV and protein was eluted with elution buffer (50 mM Tris-HCl pH = 8, 250 mM NaCl, 1% glycerol, 400 mM imidazole). Simultaneous TEV cleavage (1 mg TEV protease was added to 100 mg peptides/proteins) and buffer exchange to loading buffer via dialysis was performed over night at 4 °C. After reverse IMAC, proteins were concentrated with conical concentrators (Millipore Merck, Darmstadt, Germany) and loaded on a Superdex 10/60 75 or 200 column (GE Healthcare, München, Germany) for further purification and equilibration with ITC/NMR buffer (25 mM HEPES pH = 7.5, 100 mM NaCl). […] The protein and peptide concentrations were calculated from the UV absorption at 280 nm by Nanodrop spectrophotometer (Thermo Scientific, Langenselbold, Germany).\n(§3) All ITC experiments were performed at 25 °C using a VP-ITC microcalorimeter (Malvern Panalytical Ltd., Malvern, UK). […] The ITC data were analyzed based on a “one-site” binding model with MicroCal ITC software implemented in Origin 7.0."}, "AD^1–330": {"tested_on": "AD^1–330", "test": "NMR titration of R1-R2-R3^325–404 with UBA5 AD^1–330", "conditions": "2-fold molar excess of AD^1–330, 900 MHz", "method": "All NMR experiments were performed at a sample temperature of 25 °C on Bruker 600, 700, 800, 900, and 950 MHz spectrometers equipped with cryogenic probes, and a 500 MHz spectrometer equipped with a room-temperature triple-resonance probe. All NMR spectra were analyzed with the Sparky 3.114 software (University of California, San Francisco, USA). For NMR titration experiments, the non-labeled UBA5 peptides were titrated to 100 µM ^13C,^15N-labeled UFC1 to a final molar ratio of 1:8 (UFC1:UBA5 peptide). Conversely, 100 µM ^13C,^15N-labeled UBA5 peptides were titrated with non-labeled UFC1 to a final molar ratio 1:4 (UBA5 peptide:UFC1). 2D ^1H-^15N correlation spectra ([^15N,^1H] TROSY-HSQC) were recorded at each titration point. The same types of spectra were recorded to estimate binding of ^13C,^15N-labeled UFC1 (75 µM) to non-labeled UBA5, UBA5~UFM1 and UFM1 at 1:2 molar ratios. CSP values, Δδ, were calculated for each individual amide group using the formula Δδ = [(ΔδN/5)^2 + Δδ^2HN)]^1/2. […]\nexperiment, non‐labelled AD1–330 construct was added to the 15N‐labelled R1‐R2‐R3325–404 peptide to a 2‐fold molar excess.\nRepresentative area of [15N,1H] TROSY‐HSQC spectra recorded at 900 MHz for R1‐R2‐R3325–404 in free form (red contours) and in presence of AD1–330 (blue contours) are overlaid. […]"}, "GABARAP": {"molecular_target": "T2, GABARAP (Homo sapiens, UniProt O95166)", "T2 construct": "modified ubiquitin tag (Ub19) with TEV site (N, cleaved yes); made in house; host or cells: E. coli T7 Express", "T2 sequence (O95166 3-116)": "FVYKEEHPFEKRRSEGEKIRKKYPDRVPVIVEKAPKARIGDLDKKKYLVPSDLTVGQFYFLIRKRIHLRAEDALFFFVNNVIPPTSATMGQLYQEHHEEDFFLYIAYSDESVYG", "test": "ITC, UBA5 peptides vs GABARAP", "conditions": "25 °C", "source_text": "as §1, §2, §3"}, "GABARAPL2": {"molecular_target": "T3, GABARAPL2 (Homo sapiens, UniProt P60520)", "T3 construct": "modified ubiquitin tag (Ub19) with TEV site (N, cleaved yes); made in house; host or cells: E. coli T7 Express", "T3 sequence (P60520 3-116)": "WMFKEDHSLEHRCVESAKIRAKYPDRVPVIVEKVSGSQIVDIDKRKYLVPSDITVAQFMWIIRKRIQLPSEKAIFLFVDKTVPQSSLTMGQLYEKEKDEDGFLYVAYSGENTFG", "test": "ITC, UBA5 peptides vs GABARAPL2", "conditions": "25 °C", "source_text": "as §1\nAll proteins and peptides were expressed in E.Coli T7 Express (New England Biolabs GmbH, Frankfurt, Germany) cells in LB or M9 (to obtain ^15N- and ^13C,^15N-labeled polypeptides) media according to the protocol described in [33, 36]. For protein purification, bacterial cell pellets were resuspended in lysis buffer (50 mM Tris-HCl pH = 7.5, 100 mM NaCl, 5% glycerol, 5 mM PIC (protease inhibitor cocktail)) and lysed via sonication (TT13 Sonotrode, 40% amplitude, for 6 × 1 min with a 0.5/0.5-s pulse). Lysates were centrifuged for 45 min at 17,000× g at 4 °C. Supernatants were loaded onto a His Trap Fast Flow 5 mL column (GE Healthcare, München, Germany) equilibrated in loading buffer (50 mM Tris-HCl pH = 8.0, 250 mM NaCl, 1% glycerol, 20 mM imidazole). The column was washed with loading buffer for 5–10 CV and protein was eluted with elution buffer (50 mM Tris-HCl pH = 8, 250 mM NaCl, 1% glycerol, 400 mM imidazole). Simultaneous TEV cleavage (1 mg TEV protease was added to 100 mg peptides/proteins) and buffer exchange to loading buffer via dialysis was performed over night at 4 °C. After reverse IMAC, proteins were concentrated with conical concentrators (Millipore Merck, Darmstadt, Germany) and loaded on a Superdex 10/60 75 or 200 column (GE Healthcare, München, Germany) for further purification and equilibration with ITC/NMR buffer (25 mM HEPES pH = 7.5, 100 mM NaCl). For structural NMR spectroscopy, buffer containing 50 mM Tris-HCl pH = 7.5, 100 mM NaCl was used. Prior to NMR experiments, TCEP and protease inhibitors cocktail were added to the samples to final concentrations 1 and 5 mM, respectively. Purified peptides and protein were concentrated and stored at −80 °C. The protein and peptide concentrations were calculated from the UV absorption at 280 nm by Nanodrop spectrophotometer (Thermo Scientific, Langenselbold, Germany).\nAll ITC experiments were performed at 25 °C using a VP-ITC microcalorimeter (Malvern Panalytical Ltd., Malvern, UK). Peptides in concentration of ~400 µM were titrated into 20–25 µM solutions of corresponding binding partner at a stirring speed of 307 rpm. The raw data were corrected on the dilution heat of peptides obtained in independent experiment (titration of the peptide in syringe into the ITC/NMR buffer in the measuring cell). Pre-titration delay was set to 180 s, interval between titration steps was experimentally adjusted to avoid kinetic contribution to the observed heat effects and set to 200 s. A single ITC profile was collected for each type of interaction. The ITC data were analyzed based on a “one-site” binding model with MicroCal ITC software implemented in Origin 7.0."}}}
{"substance": "R1-R2-R3^325–404: UBA5 C-terminal part, residues 325–404 (recombinant, E. coli)", "values": [{"measurement": "ΔG", "setting": "LC3A", "result": -7.38, "unit": "kcal/mol"}, {"measurement": "−T*ΔS", "setting": "LC3A", "result": -3.13, "unit": "kcal/mol"}, {"measurement": "KA*10^−6", "setting": "LC3A; value is KA × 10^−6, ± = fitting error", "result": "0.26 ± 0.03", "unit": "M^−1"}, {"measurement": "interaction with UBA5 AD", "setting": "AD^1–330", "result": "No interactions"}, {"measurement": "ΔG", "setting": "GABARAP", "result": -8.15, "unit": "kcal/mol"}, {"measurement": "ΔS", "setting": "GABARAP", "result": 24.2, "unit": "cal mol^−1 K^−1"}, {"measurement": "−T*ΔS", "setting": "GABARAP", "result": -7.22, "unit": "kcal/mol"}, {"measurement": "ΔG", "setting": "GABARAPL2; vs GABARAPL2", "result": -9.25, "unit": "kcal/mol"}, {"measurement": "ΔS", "setting": "GABARAPL2; vs GABARAPL2", "result": 2.04, "unit": "cal mol^−1 K^−1"}, {"measurement": "−T*ΔS", "setting": "GABARAPL2; vs GABARAPL2", "result": -0.61, "unit": "kcal/mol"}, {"measurement": "KA*10^−6", "setting": "GABARAPL2; vs GABARAPL2, value is KA × 10^−6, ± = fitting error", "result": "5.99 ± 0.49", "unit": "M^−1"}]}
